Measured values as given in US9486519B2, “Use of FLT3 ligand for enhancing immune responses in RNA immunization” (BioNTech AG, priority 2008, dated 2016).

Legend:
[1] = Half-time of Flt3L-IgG4 in serum, human IgG ELISA; format: in vivo, Balb/c mice
Description: At defined time points (prior to administration; 3 h, 24 h, 48 h, 3 d, 5 d, 7 d, 9 d, 14 d, 21 d) serum samples of the mice were preserved. These samples were used in an ELISA assay for quantifying human IgG. The half-time is 2.14 days (=51 hours).
At defined time points (prior to administration; 3 h, 24 h, 48 h, 3 d, 5 d, 7 d, 9 d, 14 d, 21 d) serum samples of the mice were preserved. These samples were used in an ELISA assay for quantifying human IgG. The half-time is 1,667 days (=40 hours).
Serum samples obtained from the mice were preserved at defined time points (prior to administration; 3 h, 24 h, 48 h, 3 d, 5 d, 7 d, 9 d, 14 d, 21d). Human IgG was quantified in these samples by means of an ELISA assay. Due to the fusion of human IgG4 to FIt3L in this construct the Flt3L concentration can be determined by quantifying human IgG in serum of mice.

lymph nodes and spleen = experiment: Cellularity of lymph nodes and spleen after i.p. Flt3-L; format: in vivo, C57Bl/6 mice; settings: 2x, 3x, 5x 10 μg i.p.; 10-12 days after the first injection
Description: C57Bl/6 mice (n=3-9) were administered 10 μg Flt3L intraperitoneally at different timepoints (d1 to d3 or d1, d1, d3 or d0, d3). On day 10 the lymph nodes (LN) and the spleen were removed and the cell count was determined. The data shown represent the average cell count +SEM of the lymph nodes. *: p<0.05 in Tukey's multiple comparison test.
(§1) To test the effects of application of human Flt3 ligand on the efficiency of RNA-based immunizations, the changes in the cellular composition of lymph nodes and spleen were first investigated in the mouse model. For this, various application schemes (2×, 3×, 5×10 μg) of recombinant Flt3-L were applied intraperitoneally and the cellularity was determined 10-12 days after the first injection. […] This increase could be shown for all relevant subpopulations of the dendritic cells in spleen and lymph nodes (FIG. 2).

dendritic cells = experiment: Dendritic cell subpopulations in spleen and lymph nodes by flow cytometry after i.p. Flt3-L; format: in vivo, C57Bl/6 mice; settings: 10 μg i.p. d0, d3; day 10
Description: C57Bl/6 mice (n=3) were administered 10 μg Flt3L twice (d0, d3) intraperitoneally. On day 10 the inguinal lymph nodes were removed, the cells were stained with corresponding antibodies and the subpopulations of the dendritic cells were quantified by flow cytometry. The data shown represent the average cell count of the subpopulation *: p<0.05 and **: p<0.001 in the two-sided unpaired t-test.
as §1

B16 Ova tumors = experiment: Therapeutic vaccination against B16 Ova tumors, survival; format: in vivo, C57BL/6 mice
Description: To examine the synergy of combining Flt3L administration with RNA vaccination, a therapeutic tumor experiment was performed. To this end, 4 groups (n=10) of C57BL/6 mice were formed. All mice received on day 0 a s.c. injection of B16 Ova cells (2×10^5). Hereof a control group was only treated by IgG4 injection (10 μg; d3, d7, d14, d17). […] The Kaplan Meier plot of the survival rate of mice is shown.
To investigate the synergy of the combination of Flt3L administration together with RNA vaccination a therapeutic tumor experiment was performed. To this end four groups (n=10) of C57BL/6 mice were formed. All mice received on day 0 a s.c. injection of 2×10^5 B16 Ova tumor cells (Bellone et al., J. Immunol., 2000, 165:2651-2656). Thereof a control group was only treated by IgG4 injection (10 μg; d3, d7, d14, d17).

[2] = tested on: RNA uptake in the lymph nodes; experiment: Effect of Flt3-L on RNA uptake in lymph nodes, in-vivo bioluminescence; parameters: species or system C57BL/6 mice; settings: 10 μg i.p. day 0 and 3; 20 μg luciferase-RNA intranodally day 10
Description: (f) Effect of Flt3-L on RNA uptake. C57BL/6 mice (n=8) were treated i.p. on day 0 and 3 with 10 μg, Flt3-L, or were not treated in the control group. On day 10 the mice were injected intranodally with 20 μg luciferase-RNA. 24 h later the luciferase signal was measured by in-vivo bioluminescence.
C57BL/6 mice (n=8) were treated i.p. on day 0 and 3 with 10 μg Flt3-L or were not treated in the control group. On day 10 the mice were injected intranodally with 20 μg luciferase-RNA. 24 h later the luciferase signal was measured by in-vivo bioluminescence. […] The bars give the mean value of all measured values for a group. The experiment is representative for 3 independent experiments. Statistics: Student's t-test.

[3] = tested on: cell populations of the murine lymph node; experiment: Effects of different Flt3L on the cellular composition in lymph nodes; format: in vivo, C57BL/6 mice; settings: 0.4 mol i.p. day 0; lymph nodes day 10
Description: On day 10 the lymph nodes of the mice were removed and characterized by flow cytometry. Dendritic cells (DCs (marker: CD11c^+/NK1.1^−)), CD4^+ helper T cells (marker: CD3^+/CD4^+/CD8^−/NK1.1^−), CD8^+ T cells (marker: CD3^+/CD8^+/CD4^−/NK1.1^−), CD19^+ B cells (marker: CD19^+/CD3^−/NK1.1^−).
In this experiment Flt3 ligand (Flt3-IgG4) was compared with commercially available Flt3 preparations with respect to the effect on different cell populations of the murine lymph node. A product recombinantly expressed in bacteria (Peprotech Flt3L; Peprotech, Hamburg, Germany) and a product expressed in human HEK293 cells (Humanzyme Flt3L, Humanzyme; Chicago Ill., U.S.A.) were used as commercially available Flt3 preparations. Human IgG4 (Sigma-Aldrich, Deisenhofen, Germany) served as control.
On day 10 both inguinal lymph nodes of the mice were removed, the cell count determined by means of a Neubauer chamber and the cell populations were characterized by flow cytometry.

B1: Flt3L-IgG4: recombinant human Flt3 ligand prepared as a fusion protein with IgG4, SEQ ID NO: 6, expressed in HEK293 cells (protein)
chain: MTVLAPAWSPTTYLLLLLLLSSGLSGTQDCSFQHSPISSDFAVKIRELSDYLLQDYPVTVASNLQDEELCGGLWRLVLAQRWMERLKTVAGSKMQGLLERVNTEIHFVTKCAFQPPPSCLRFVQTNISRLLQETSEQLVALKPWITRQNFSRCLELQCQPDSSTLPPPWSPRPLEATAPTAPQPPRSPPCPSCPAPEFLGGPSVFLFPPKPKDTLMISRTPEVTCVVVDVSQEDPEVQFNWYVDGVEVHNAKTKPREEQFNSTYRVVSVLTVLHQDWLNGKEYKCKVSNKGLPSSIEKTISKAKGQPREPQVYTLPPSQEEMTKNQVSLTCLVKGFYPSDIAVEWESNGQPENNYKTTPPVLDSDGSFFLYSRLTVDKSRWQEGNVFSCSVMHEALHNHYTQKSLSLSPGK
modifications: Fusionsprotein
[1]; 20 μg and 50 μg i.p.
  detectable in serum after injection: up to 5 days
[1]; 20 μg i.p.
  half-life in serum: 51 h
  half-time in serum: 2.14 days
[1]; 50 μg i.p.
  half-life in serum: 40 h
[1]; from serum half-life
  stability compared to Flt3L without IgG4 fusion: increased stability
Lymph nodes and spleen
  cellularity in spleen and lymph nodes: increase in cellularity in spleen and lymph nodes
Dendritic cells
  dendritic cells in spleen and lymph nodes: increase in dendritic cells
B16 Ova tumors; Flt3L-IgG4 15 μg in combination with intranodal RNA vaccination 20 μg
  portion of mice surviving in the long term: about 80%
B16 Ova tumors; Flt3L-IgG4 15 μg without RNA vaccination
  survival in the long term: 10%
B16 Ova tumors; Flt3L-IgG4 without RNA vaccination
  therapeutic effect on tumor growth: minimal therapeutic effect on tumor growth
B16 Ova tumors; survival
  effect of the combination with intranodal vaccination of RNA: synergistic effect
[2]
  RNA uptake in the lymph nodes (in-vivo bioluminescence): does not have an inhibitory effect
[3]
  expansion of dendritic cells: strong similarity
  expansion of the lymphocyte populations: tended to be strongest
